From patent publication US20240116985A1, “STAPLED PEPTIDES AND METHODS THEREOF” (priority 2020, published 2024) come the findings set out here.

Starred links: 1 amine or outer side, 2 acyl side, 3 side chain; linkers in the order of their positions; H or OH if unused. Positions of bridges follow the written chain, without caps; N, C: chain ends. Non-standard residues stand in square brackets, D forms with d. Primed or numbered codes have the meaning given here. PyrS2″ = (S)-3-amino-1-((pent-4-en-1-yloxy)carbonyl)pyrrolidine-3-carboxylic acid (stapling residue), C=CCCCOC(=O)N1CC[C@@](N[*:1])(C(=O)[*:2])C1; B5(16) = 2-amino-2-(pent-4-en-1-yl)hept-6-enoic acid = 2,2-bis(4-pentenyl)glycine (stitching residue), C=CCCCC(CCCC=C)(N[*:1])C(=O)[*:2]; B5(4) = 2,2-bis(4-pentenyl)glycine = 2-amino-2-(pent-4-en-1-yl)hept-6-enoic acid (stitching residue), C=CCCCC(CCCC=C)(N[*:1])C(=O)[*:2]; B5(5) = 2,2-bis(4-pentenyl)glycine, 2-amino-2-(pent-4-en-1-yl)hept-6-enoic acid (stitching residue), C=CCCCC(CCCC=C)(N[*:1])C(=O)[*:2]; PyrS2 = (S)-3-amino-1-((pent-4-en-1-yloxy)carbonyl)pyrrolidine-3-carboxylic acid, C=CCCCOC(=O)N1CC[C@@](N[*:1])(C(=O)[*:2])C1; B5 = 2-amino-2-(pent-4-en-1-yl)hept-6-enoic acid, C=CCCCC(CCCC=C)(N[*:1])C(=O)[*:2]; Bta = N[C@@H](Cc1csc2ccccc12)C(=O)O; Lys(iPr) = CC(C)NCCCC[C@H](N)C(=O)O; αAllylPro = C=CC[C@@]1(C(=O)O)CCCN1; tBuAla = CC(C)(C)C[C@H](N)C(=O)O; Cha = N[C@@H](CC1CCCCC1)C(=O)O; Cit = NC(=O)NCCC[C@H](N)C(=O)O; S8 = C=CCCCCCC[C@](C)(N)C(=O)O; hSer = N[C@@H](CCO)C(=O)O

In experiment [1] the target is full-length beta-Catenin (Uniprot ID P35222) (Homo sapiens (Human)) (UniProt P35222). Description: fluorescence polarization competition; full-length beta-catenin with 5FAM-TCF4(10-53) probe as competitor. In general terms: In fluorescence polarisation assays a small probe gives low polarisation when free and higher when bound to something large.
Target sequence in this assay (P35222 whole entry): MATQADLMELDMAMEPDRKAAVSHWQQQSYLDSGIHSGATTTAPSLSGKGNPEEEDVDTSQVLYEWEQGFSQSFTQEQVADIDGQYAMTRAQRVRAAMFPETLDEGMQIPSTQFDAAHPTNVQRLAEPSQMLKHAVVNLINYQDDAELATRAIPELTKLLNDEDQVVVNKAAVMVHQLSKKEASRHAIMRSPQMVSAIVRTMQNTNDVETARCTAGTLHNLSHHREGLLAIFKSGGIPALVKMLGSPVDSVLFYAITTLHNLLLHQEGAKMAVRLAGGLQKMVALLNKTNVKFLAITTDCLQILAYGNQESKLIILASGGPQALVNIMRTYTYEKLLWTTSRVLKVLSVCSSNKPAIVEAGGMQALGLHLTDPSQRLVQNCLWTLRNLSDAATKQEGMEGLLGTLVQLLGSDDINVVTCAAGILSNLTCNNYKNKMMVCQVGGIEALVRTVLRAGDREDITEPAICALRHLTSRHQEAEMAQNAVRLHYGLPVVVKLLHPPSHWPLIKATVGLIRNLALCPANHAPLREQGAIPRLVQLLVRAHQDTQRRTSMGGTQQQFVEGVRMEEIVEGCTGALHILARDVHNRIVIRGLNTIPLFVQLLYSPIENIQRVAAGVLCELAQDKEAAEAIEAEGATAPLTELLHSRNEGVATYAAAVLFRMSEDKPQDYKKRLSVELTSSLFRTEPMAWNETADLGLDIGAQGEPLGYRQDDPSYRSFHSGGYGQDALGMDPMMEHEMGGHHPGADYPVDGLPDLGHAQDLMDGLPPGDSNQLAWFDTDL
For experiment [2] the target is unchanged. Description: fluorescence polarization competition; peptide titrated against 10 nM full-length beta-catenin + 10 nM 5FAM-TCF4(10-53) probe.
Target sequence in this assay (P35222 whole entry): as above
Experiment [3] shares this target. As to the kind of experiment: fluorescence polarization competition; 10 nM full-length beta-catenin, 10 nM 5FAM-TCF4(10-53) probe.
Target sequence in this assay (P35222 2-781 limits assumed): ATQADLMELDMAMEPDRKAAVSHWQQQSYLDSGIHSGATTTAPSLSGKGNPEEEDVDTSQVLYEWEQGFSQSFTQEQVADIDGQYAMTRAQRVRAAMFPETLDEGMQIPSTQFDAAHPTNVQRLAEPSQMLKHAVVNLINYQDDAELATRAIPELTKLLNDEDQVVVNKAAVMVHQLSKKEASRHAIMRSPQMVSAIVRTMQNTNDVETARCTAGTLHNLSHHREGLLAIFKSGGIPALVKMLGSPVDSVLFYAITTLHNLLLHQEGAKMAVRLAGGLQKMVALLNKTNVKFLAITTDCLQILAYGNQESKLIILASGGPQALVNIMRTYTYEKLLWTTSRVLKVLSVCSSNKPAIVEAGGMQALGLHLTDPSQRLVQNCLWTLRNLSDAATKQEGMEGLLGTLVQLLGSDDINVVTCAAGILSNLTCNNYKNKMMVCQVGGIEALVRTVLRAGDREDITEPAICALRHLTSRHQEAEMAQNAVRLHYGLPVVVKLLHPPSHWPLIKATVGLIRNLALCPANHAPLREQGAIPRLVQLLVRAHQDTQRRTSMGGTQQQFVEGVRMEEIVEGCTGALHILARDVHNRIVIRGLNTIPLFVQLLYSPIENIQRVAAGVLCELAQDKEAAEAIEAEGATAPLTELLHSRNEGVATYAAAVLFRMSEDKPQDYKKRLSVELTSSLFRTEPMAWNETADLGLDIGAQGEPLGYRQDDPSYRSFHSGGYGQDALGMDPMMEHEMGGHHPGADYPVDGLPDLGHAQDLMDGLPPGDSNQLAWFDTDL

B1: I-620 (peptide)
peptide: Ac-[αAllylPro]D[Cha][B5(16)]DEAAFN[S8]F[Bta]Q-NH2
modifications: staple 1-4, 4-11; also: later-eluting staple isomer composition
The IC50 is the midpoint of a concentration-inhibition curve. Usually EC50 stands for the concentration that produces a half-maximal response. Turning to B1, the IC50 in experiment [1] was 35 nM. Also, the concentration giving a half-maximal response (EC50) in experiment [2] worked out at 35 nM.

B2: I-621 (peptide)
peptide: Ac-[αAllylPro]DL[B5(4)]DEAAF[Cit][S8]F[Bta]Q-NH2
modifications: staple 1-4, 4-11
For B2, in experiment [1], the concentration for half-maximal inhibition (IC50) was 58 nM. The EC50 in experiment [2] is 58 nM.

B3: I-619 (peptide)
peptide: Ac-[αAllylPro]D[Cha][B5(4)]DEAAFN[S8]F[Bta]Q-NH2
modifications: staple 1-4, 4-11; also: earlier eluting HPLC peak (staple isomer)
Molecule B3 showed a half-inhibitory concentration (IC50) in experiment [1] of 44 nM. Further, the EC50 in experiment [2] was 44 nM.

B4: I-1643 (peptide)
peptide: Ac-[αAllylPro]N[tBuAla][B5(4)]DQ[Lys(iPr)]AFL[PyrS2]F[Bta]K-NH2
modifications: staple 1-4, 4-11
The molecule B4 came in with a concentration for half-maximal inhibition (IC50) in experiment [3] of 822 nM. This counts as sub-micromolar.

B5: I-1649 (peptide)
peptide: Ac-[αAllylPro]N[tBuAla][B5(4)]DQ[Lys(iPr)]A[Cha]L[PyrS2]F[Bta]Q-NH2
modifications: staple 1-4, 4-11
For the molecule B5, in experiment [3], the half-maximal inhibitory concentration (IC50) worked out at 2480 nM. Compared with the last molecule, the IC50 is about 3-fold higher.

B6: I-1644 (peptide)
peptide: Ac-[αAllylPro]N[tBuAla][B5(4)]DQ[Lys(iPr)]AFL[PyrS2]F[Bta][tBuAla]-NH2
modifications: staple 1-4, 4-11
B6 came in with an IC50 in experiment [3] of 10000 nM.

B7: I-1645 (peptide)
peptide: Ac-[αAllylPro]N[tBuAla][B5(4)]DQ[Lys(iPr)]AFL[PyrS2]F[Bta][Lys(iPr)]-NH2
modifications: staple 1-4, 4-11
In experiment [3], B7 registered a half-maximal inhibitory concentration (IC50) of 940 nM.

B8: I-1646 (peptide)
peptide: Ac-[αAllylPro]N[tBuAla][B5(4)]DQ[Lys(iPr)]AFL[PyrS2]F[Bta][hSer]-NH2
modifications: staple 1-4, 4-11
On to B8, for which the half-maximal inhibitory concentration (IC50) in experiment [3] stood at 640 nM.

B9: I-615 (peptide)
peptide: Ac-[αAllylPro]D[Cha][B5]DEAAFN[S8]F[Bta]H-NH2
modifications: staple 1-4, 4-11
On to B9, for which the IC50 in experiment [1] worked out at 50 nM. Moreover, in experiment [2], the half-maximal effective concentration (EC50) is 50 nM.

B10: I-1650 (peptide)
peptide: Ac-[αAllylPro]N[tBuAla][B5(5)]DQ[Lys(iPr)]AF[Cha][PyrS2]F[Bta]Q-NH2
modifications: staple 1-4, 4-11
With B10, in experiment [3], the 50% inhibitory concentration (IC50) was 1680 nM. This lies in the single-digit micromolar range.

B11: I-616 (peptide)
peptide: Ac-[αAllylPro]DL[B5]DEAAF[Cit][S8]F[Bta]H-NH2
modifications: staple 1-4, 4-11
B11 displayed an IC50 in experiment [1] of 108 nM. Further, the EC50 in experiment [2] turned out to be 108 nM.

B12: I-1651 (peptide)
peptide: Ac-[αAllylPro]N[tBuAla][B5(5)]DQ[Lys(iPr)]AFL[PyrS2″][Cha][Bta]Q-NH2
modifications: staple 1-4, 4-11
In experiment [3], B12 came in with a half-maximal inhibitory concentration (IC50) of 3970 nM. In other words, the single-digit micromolar range.

B13: I-625 (peptide)
peptide: Ac-[αAllylPro]DL[B5(4)]DEAAFN[S8]F[Bta]-NH2
modifications: staple 1-4, 4-11; also: later eluting HPLC peak (staple isomer)
B13 came in with a half-maximal inhibitory concentration (IC50) in experiment [1] of 119 nM. In addition, the concentration giving a half-maximal response (EC50) in experiment [2] stood at 119 nM.

B14: I-624 (peptide)
peptide: Ac-[αAllylPro]DL[B5(4)]DEAAFN[S8]F[Bta]-NH2
modifications: staple 1-4, 4-11; also: earlier eluting HPLC peak (staple isomer)
On to B14, for which, in experiment [1], the IC50 was found to be 273 nM. Moreover, the half-maximal effective concentration (EC50) in experiment [2] is 273 nM.
